In patent publication US20130236458A1 (AbbVie / Abbott, published 2013):

T1: Recombinant Human IL-17 (human, UniProt Q16552 20-155, limits assumed)
T1 sequence (looked up): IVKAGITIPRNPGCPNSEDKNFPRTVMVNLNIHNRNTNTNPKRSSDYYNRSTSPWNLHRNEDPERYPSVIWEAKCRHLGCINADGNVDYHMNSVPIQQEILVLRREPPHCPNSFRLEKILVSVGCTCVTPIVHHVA


Tests used:
[1] = biological target: T1, Recombinant Human IL-17; assay: cell-based or functional assay
[2] = biological target: T1, Recombinant Human IL-17; assay: SPR (Biacore)
Protocol: (§1) The BIACORE assay (Biacore, Inc, Piscataway, N.J.) determined the affinity of antibodies or DVD-Ig with kinetic measurements of on-rate and off-rate constants. Binding of antibodies or DVD-Ig proteins to a target antigen (for example, a purified recombinant target antigen) was determined by surface plasmon resonance-based measurements with a Biacore®1000 or 3000 instrument (Biacore® AB, Uppsala, Sweden) using running HBS-EP (10 mM HEPES [pH 7.4], 150 mM NaCl, 3 mM EDTA, and 0.005% surfactant P20) at 25° C. All chemicals were obtained from Biacore® AB (Uppsala, Sweden) or otherwise from a different source as described in the text. For example, approximately 5000 RU of goat anti-mouse IgG, (Fcγ), fragment specific polyclonal antibody (Pierce Biotechnology Inc, Rockford, Ill.) diluted in 10 mM sodium acetate (pH 4.5) was directly immobilized across a CM5 research grade biosensor chip using a standard amine coupling kit according to manufacturer's instructions and procedures at 25 μg/ml. Unreacted moieties on the biosensor surface were blocked with ethanolamine. Modified carboxymethyl dextran surface in flowcell 2 and 4 was used as a reaction surface. Unmodified carboxymethyl dextran without goat anti-mouse IgG in flow cell 1 and 3 was used as the reference surface. For kinetic analysis, rate equations derived from the 1:1 Langmuir binding model were fitted simultaneously to association and dissociation phases of all eight injections (using global fit analysis) with the use of Biaevaluation 4.0.1 software. Purified antibodies or DVD-Ig proteins were diluted in HEPES-buffered saline for capture across goat anti-mouse IgG specific reaction surfaces. Antibodies or DVD-Ig proteins to be captured as a ligand (25 μg/ml) were injected over reaction matrices at a flow rate of 5 μl/minute. The association and dissociation rate constants, kₒₙ (M⁻¹s⁻¹) and koff (s⁻¹) were determined under a continuous flow rate of 25 μl/minute. Rate constants were derived by making kinetic binding measurements at different antigen concentrations ranging from 10-200 nM. The equilibrium dissociation constant (M) of the reaction between antibodies or DVD-Ig proteins and the target antigen was then calculated from the kinetic rate constants by the following formula: KD=koff/kₒₙ. Binding was recorded as a function of time and kinetic rate constants were calculated.

[3] = biological target: T2, Recombinant Human IL-13 (human, UniProt P35225 35-146, limits assumed); assay: cell-based or functional assay
T2 sequence (P35225 35-146 limits assumed): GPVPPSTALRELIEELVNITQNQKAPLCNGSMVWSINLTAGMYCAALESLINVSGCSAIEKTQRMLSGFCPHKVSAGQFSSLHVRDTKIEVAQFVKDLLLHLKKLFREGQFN

[4] = biological target: T2, Recombinant Human IL-13; assay: SPR (Biacore)
Protocol: as §1

| Binder | IL17 Neutralization Assay IC50 (IL-6, HS27 cells) [1] | Kd [2] | koff [2] | kon [2] | IL13 Neutralization Assay IC50 (TARC, A549 cells) [3] | Kd [4] | koff [4] | kon [4] | C-Terminal VD IL17 Neutralization Assay IC50 [1] | N-Terminal VD IL13 Neutralization Assay IC50 [3] |
| --- | --- | --- | --- | --- | --- | --- | --- | --- | --- | --- |
| AB273 (antibody, V domains shown, parent antibody; also called AB273VH) VH: EVQLVQSGAEVKKPGSSVKVSCKASGYTFTDYEIHWVRQAPGQGLEWMGVNDPESGGTFYNQKFDGRVTLTADESTSTAYMELSSLRSEDTAVYYCTRYSKWDSFDGMDYWGQGTTVTVSS VL: DIQMTQSPSSLSASVGDRVTITCRASSGIISYIDWFQQKPGKAPKRLIYATFDLASGVPSRFSGSGSGTDYTLTISSLQPEDFATYYCRQVGSYPETFGQGTKLEIKR | 19.8 pM | < 0.5 pM | < 1e-06 s⁻¹ | 2e+06 M⁻¹ s⁻¹ | – | – | – | – | – | – |
| AB399 (antibody, V domains shown, parent antibody; also called AB399VH) VH: EVQLVQSGAEVKKPGASVKVSCKASGYTFTSYWMHWVRQAPGQGLEWIGNINPKGGSNIYNEKFQGRVTMTRDTSISTAYMELSRLRSDDTAVYYCARLDYFGDSFDLWGQGTTVTVSS VL: DIQMTQSPSSLSASVGDRVTITCRASQGIRNYLNWYQQKPGKAPKLLIYYASNLEVGVPSRFSGSGSGTDYTLTISSLQPEDFATYYCQQDNRFPYTFGGGTKVEIKR | – | – | – | – | 43 pM | 19 pM | 6.4e-05 s⁻¹ | 3.4e+06 M⁻¹ s⁻¹ | – | – |
| AB398 (antibody, V domains shown, parent antibody; also called AB398VH) VH: EVQLVQSGAEVKKPGASVKVSCKASGYTFTTYGVSWVRQAPGQGLEWMGEIYPGNYNTYYNEKFRGRVTMTTDTSTSTAYMELRSLRSDDTAVYYCARWRTSYFSDYGYFDYWGQGTTVTVSS VL: DVVMTQSPLSLPVTLGQPASISCRSSQSLVHSHGNTYLHWYQQRPGQSPRLLIYTVSNRFSGVPDRFSGSGSGTDFTLKISRVEAEDVGVYYCSQSTHVPYTFGGGTKVEIKR | – | – | – | – | 82 pM | 45 pM | 2.8e-05 s⁻¹ | 630000 M⁻¹ s⁻¹ | – | – |
| DVD2160 (bispecific antibody) VH: EVTLRESGPGLVKPTQTLTLTCTLYGFSLSTSDMGVDWIRQPPGKGLEWLAHIWWDDVKRYNPALKSRLTISKDTSKNQVVLKLTSVDPVDTATYYCARTVSSGYIYYAMDYWGQGTLVTVSSASTKGPEVQLVQSGAEVKKPGESVKISCKASGGSFRSYGISWVRQAPGQGLEWMGGITHFFGITDYAQKFQGRVTITADESTTTAYMELSGLTSDDTAVYYCAREPNDFWNGYYDTHDFDSWGQGTTVTVSS VL: DIQMTQSPSSLSASVGDRVTISCRASQDIRNYLNWYQQKPGKAPKLLIFYTSKLHSGVPSRFSGSGSGTDYTLTISSLQPEDIATYYCQQGLTPPLTFGGGTKVEIKRTVAAPEIVLTQSPDFQSVTPKEKVTITCRASQNIGSELHWYQQKPDQSPKLLIKYASHSISGVPSRFSGSGSGTDFTLTINGLEAEDAATYYCHQSDTLPHTFGQGTKVDIKR | – | – | – | – | – | – | – | – | 703 pM | 178 pM |
| AB274 (antibody, V domains shown, parent antibody; also called AB274VH) VH: EVQLVQSGAEVKKPGSSVKVSCKASGGSFGGYGIGWVRQAPGQGLEWMGGITPFFGFADYAQKFQGRVTITADESTTTAYMELSGLTSDDTAVYYCARDPNEFWNGYYSTHDFDSWGQGTTVTVSS VL: EIVLTQSPDFQSVTPKEKVTITCRASQDIGSELHWYQQKPDQPPKLLIKYASHSTSGVPSRFSGSGSGTDFTLTINGLEAEDAGTYYCHQTDSLPYTFGPGTKVDIKR | 3 pM | 7.4 pM | 8.2e-06 s⁻¹ | 1.1e+06 M⁻¹ s⁻¹ | – | – | – | – | – | – |
| AB275 (antibody, V domains shown, parent antibody; also called AB275VH) VH: EVQLVQSGAEVKKPGESVKISCKASGGSFRSYGISWVRQAPGQGLEWMGGITHFFGITDYAQKFQGRVTITADESTTTAYMELSGLTSDDTAVYYCAREPNDFWNGYYDTHDFDSWGQGTTVTVSS VL: EIVLTQSPDFQSVTPKEKVTITCRASQNIGSELHWYQQKPDQSPKLLIKYASHSISGVPSRFSGSGSGTDFTLTINGLEAEDAATYYCHQSDTLPHTFGQGTKVDIKR | 5.2 pM | 34 pM | 6.5e-05 s⁻¹ | 1.9e+06 M⁻¹ s⁻¹ | – | – | – | – | – | – |

Results, then the binder that gave them:

| IL17 Neutralization Assay IC50 (IL-6, HS27 cells) [1] | Kd [2] | koff [2] | kon [2] | IL13 Neutralization Assay IC50 (TARC, A549 cells) [3] | Kd [4] | koff [4] | kon [4] | C-Terminal VD IL17 Neutralization Assay IC50 [1] | N-Terminal VD IL13 Neutralization Assay IC50 [3] | Binder |
| --- | --- | --- | --- | --- | --- | --- | --- | --- | --- | --- |
| – | – | – | – | – | – | – | – | 351 pM | 430 pM | DVD2154 (bispecific antibody) VH: EVTLRESGPGLVKPTQTLTLTCTLYGFSLSTSDMGVDWIRQPPGKGLEWLAHIWWDDVKRYNPALKSRLTISKDTSKNQVVLKLTSVDPVDTATYYCARTVSSGYIYYAMDYWGQGTLVTVSSASTKGPEVQLVQSGAEVKKPGSSVKVSCKASGGSFGGYGIGWVRQAPGQGLEWMGGITPFFGFADYAQKFQGRVTITADESTTTAYMELSGLTSDDTAVYYCARDPNEFWNGYYSTHDFDSWGQGTTVTVSS VL: DIQMTQSPSSLSASVGDRVTISCRASQDIRNYLNWYQQKPGKAPKLLIFYTSKLHSGVPSRFSGSGSGTDYTLTISSLQPEDIATYYCQQGLTPPLTFGGGTKVEIKRTVAAPEIVLTQSPDFQSVTPKEKVTITCRASQDIGSELHWYQQKPDQPPKLLIKYASHSTSGVPSRFSGSGSGTDFTLTINGLEAEDAGTYYCHQTDSLPYTFGPGTKVDIKR |
| – | – | – | – | – | – | – | – | 15.5 pM | 129 pM | DVD2156 (bispecific antibody) VH: EVTLRESGPGLVKPTQTLTLTCTLYGFSLSTSDMGVDWIRQPPGKGLEWLAHIWWDDVKRYNPALKSRLTISKDTSKNQVVLKLTSVDPVDTATYYCARTVSSGYIYYAMDYWGQGTLVTVSSASTKGPEVQLVQSGAEVKKPGSSVKVSCKASGGSFGGYGIGWVRQAPGQGLEWMGGITPFFGFADYAQKFQGRVTITADESTTTAYMELSGLTSDDTAVYYCARDPNEFWNGYYSTHDFDSWGQGTTVTVSS VL: DIQMTQSPSSLSASVGDRVTISCRASQDIRNYLNWYQQKPGKAPKLLIFYTSKLHSGVPSRFSGSGSGTDYTLTISSLQPEDIATYYCQQGLTPPLTFGGGTKVEIKRTVAAPSVFIFPPEIVLTQSPDFQSVTPKEKVTITCRASQDIGSELHWYQQKPDQPPKLLIKYASHSTSGVPSRFSGSGSGTDFTLTINGLEAEDAGTYYCHQTDSLPYTFGPGTKVDIKR |
| – | – | – | – | – | – | – | – | 21.3 pM | 126 pM | DVD2162 (bispecific antibody) VH: EVTLRESGPGLVKPTQTLTLTCTLYGFSLSTSDMGVDWIRQPPGKGLEWLAHIWWDDVKRYNPALKSRLTISKDTSKNQVVLKLTSVDPVDTATYYCARTVSSGYIYYAMDYWGQGTLVTVSSASTKGPEVQLVQSGAEVKKPGESVKISCKASGGSFRSYGISWVRQAPGQGLEWMGGITHFFGITDYAQKFQGRVTITADESTTTAYMELSGLTSDDTAVYYCAREPNDFWNGYYDTHDFDSWGQGTTVTVSS VL: DIQMTQSPSSLSASVGDRVTISCRASQDIRNYLNWYQQKPGKAPKLLIFYTSKLHSGVPSRFSGSGSGTDYTLTISSLQPEDIATYYCQQGLTPPLTFGGGTKVEIKRTVAAPSVFIFPPEIVLTQSPDFQSVTPKEKVTITCRASQNIGSELHWYQQKPDQSPKLLIKYASHSISGVPSRFSGSGSGTDFTLTINGLEAEDAATYYCHQSDTLPHTFGQGTKVDIKR |
| – | – | – | – | 33 pM | 130 pM | 0.00012 s⁻¹ | 920000 M⁻¹ s⁻¹ | – | – | AB397 (antibody, V domains shown, parent antibody; also called AB397VH) VH: EVTLRESGPGLVKPTQTLTLTCTLYGFSLSTSDMGVDWIRQPPGKGLEWLAHIWWDDVKRYNPALKSRLTISKDTSKNQVVLKLTSVDPVDTATYYCARTVSSGYIYYAMDYWGQGTLVTVSS VL: DIQMTQSPSSLSASVGDRVTISCRASQDIRNYLNWYQQKPGKAPKLLIFYTSKLHSGVPSRFSGSGSGTDYTLTISSLQPEDIATYYCQQGLTPPLTFGGGTKVEIKR |
